These results are taken from patent publication US20260055201A1 (SHENGHE CHINA BIOPHARMACEUTICAL, published 2026).

Where two headings read alike, the source gives them in different places.

The target in test [1] is T1, Human TNFR2 mFc (manufacturer: Kaixia, CAT: TN-HM3R2) (human, UniProt P20333 23-257).
T1 construct: treated as one molecule; also called Human TNFR2 mFC (KaKa, CAT: TNF-HM3R2); human TNFR2 mFC protein; not shown: mFc part
T1 sequence (looked up): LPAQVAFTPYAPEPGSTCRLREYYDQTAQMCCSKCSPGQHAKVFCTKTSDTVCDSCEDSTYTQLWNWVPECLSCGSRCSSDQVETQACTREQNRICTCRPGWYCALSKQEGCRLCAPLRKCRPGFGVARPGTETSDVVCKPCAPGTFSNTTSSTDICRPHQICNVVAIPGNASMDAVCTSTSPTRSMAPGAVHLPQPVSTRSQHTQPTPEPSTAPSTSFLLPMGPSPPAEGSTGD
Description: bridging ELISA: human TNFR2 mFc coated, antibody titrated, then human 4-1BB His 0.3 ug/mL, HRP anti-His detection, OD450. As to the method: (§1) The coating solution was poured off. Each well was washed with 1×PBST at 300 μL, washed 4 times with a plate washer, and patted dry on a flat paper. It was blocked with 3% skim milk powder at 300 μL/well, and incubated at 37° C. for 1 h. The blocking solution was poured off, washed 4 times with a plate washer, and patted dry on a flat paper. […] Starting at 50 nM, which was used as the initial concentration for 3-fold dilution, a total of 10 gradients were diluted, and a blank well was set up and only the diluent was added. It was incubated at 37° C. for 1 h at 100 μL/well. The liquid in the well was discarded, washed 4 times with a plate washer, and patted dry on a flat paper. Human 4-1BB His (manufacturer: Acro, CAT: 41B-H5258, LOT: 198-2146F1-W6) was diluted to 0.3 μg/mL, 100 μL was added to each well, and incubated at room temperature for 1 h. […] It was washed 6 times with a plate washer, and patted dry on a flat paper. TMB color developing solution was added at 100 μL/well, and wrapped with aluminum foil. Color development was performed at 37° C. in the dark for 8 min. Termination solution 1M HCl was added to terminate the color development reaction at 100 μL/well. Readings were taken at 450 nm on an ELISA reader.

Test [2] has as its target T2, Human 4-1BB His (manufacturer: Acro, CAT: 41B-H5258) (human, UniProt Q07011 24-186).
T2 construct: Bought protein; also called human 4-1BB protein; 4-1BB protein; not shown: His tag
Description: ELISA, human 4-1BB His coated at 0.2 ug/mL, anti-human IgG detection, OD450. As to the method: The coating solution was poured off. Each well was washed with 1×PBST at 300 μL, washed 4 times with a plate washer, and patted dry on a flat paper. It was blocked with 3% skim milk powder at 300 μL/well, and incubated at 37° C. for 1 h. The blocking solution was poured off, washed 4 times with a plate washer, and patted dry on a flat paper. Negative control and positive control were set up. […] The positive control and antibody were diluted to 10 μg/mL with 3% skim milk powder as the starting concentration, and then diluted by 3-fold gradient (11 gradients in total), and a blank well was set up and only the diluent was added. It was incubated at 37° C. for 1 h at 100 μL/well. The liquid in the well was discarded, washed 4 times with a plate washer, and patted dry on a flat paper. […] It was washed 6 times with a plate washer, and patted dry on a flat paper. TMB color developing solution was added at 100 μL/well, and wrapped with aluminum foil. Color development was performed at 37° C. in the dark for 8 min. Termination solution 1M HCl was added to terminate the color development reaction at 100 μL/well. Readings were taken at 450 nm on an ELISA reader.
(ELISA stands for enzyme-linked immunosorbent assay.)

Test [3] deals with T3, Human 4-1BB Fc (manufacturer: Acro, CAT: 41B-H5258) (human, UniProt Q07011 24-186).
T3 construct: not shown: Fc part
Put plainly: bridging ELISA: human 4-1BB Fc coated, antibody titrated, then human TNFR2 His 0.3 ug/mL, HRP anti-His detection, OD450. As to the method:
as §1, with “paper.” for “paper. Human 4-1BB His (manufacturer: Acro, CAT: 41B-H5258, LOT: 198-2146F1-W6) was diluted to 0.3 μg/mL, 100 μL was added to each well, and incubated at room temperature for 1 h.”

Test [4] deals with T1, Human TNFR2 mFc (manufacturer: Kaixia, …). Description: blocking ELISA: human TNFR2 mFc coated, antibody titrated together with human TNF alpha His (blocked ligand), anti-His detection, OD450. As to the method: (§2) The coating solution was poured off. Each well was washed with 1×PBST at 300 μL, washed 4 times with a plate washer, and patted dry on a flat paper. It was blocked with 3% skim milk powder at 300 μL/well, and incubated at 37° C. for 1 h. The blocking solution was poured off, washed 4 times with a plate washer, and patted dry on a flat paper. Negative control and positive control were set up. […] The positive control and antibody were diluted diluted to 100 nM with 3% skim milk powder as the starting concentration, and then diluted by 3-fold gradient (11 gradients in total), and a blank well was set up and only the diluent was added. […] The liquid in the well was discarded, washed 4 times with a plate washer, and patted dry on a flat paper. The anti his antibody (Abcam, Cat: ab1187) was diluted with 3% skim milk powder at 1:5000, 100 μL was added to each well, and incubated at 37° C. for 1 h. It was washed 6 times with a plate washer, and patted dry on a flat paper. TMB color developing solution was added at 100 μL/well, and wrapped with aluminum foil. Color development was performed at 37° C. in the dark for 8 min. Termination solution 1M HCl was added to terminate the color development reaction at 100 μL/well. Readings were taken at 450 nm on an ELISA reader.

The target is the same in test [5]. Described as above. How it is done: as §2
This is another data set of the same source.

T3 sequence (Q07011 24-186 limits assumed): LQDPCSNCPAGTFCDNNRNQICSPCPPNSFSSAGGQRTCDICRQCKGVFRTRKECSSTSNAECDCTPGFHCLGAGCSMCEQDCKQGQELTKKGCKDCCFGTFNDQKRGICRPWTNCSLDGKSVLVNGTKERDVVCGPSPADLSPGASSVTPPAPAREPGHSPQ
T2 sequence (Q07011 24-186 limits assumed): as above

B1: TB-C1 (bispecific antibody, human IgG1, kappa)
light: DIQMTQSPSSLSASLGDRVTISCSASQGISNYLNWYQQKPDGTVKLLIYYTSTLHSGVPSRFSGSGSGTDYTLTISSLQPEDIATYYCQQYSKLPWTFGGGTKLEIKRTVAAPSVFIFPPSDEQLKSGTASVVCLLNNFYPREAKVQWKVDNALQSGNSQESVTEQDSKDSTYSLSSTLTLSKADYEKHKVYACEVTHQGLSSPVTKSFNRGEC
heavy: not shown
notes: also called antibody TB-C1
For the molecule B1, the figures for the concentration for a half-maximal effect (EC50 (read off the curve)) in test [1] and in test [2] were around 0.06 nM and around 0.1 nM, respectively.

B2: TB-A (bispecific antibody, human IgG1, kappa)
light: DIQMTQSPSSLSASLGDRVTISCSASQGISNYLNWYQQKPDGTVKLLIYYTSTLHSGVPSRFSGSGSGTDYTLTISSLQPEDIATYYCQQYSKLPWTFGGGTKLEIKRTVAAPSVFIFPPSDEQLKSGTASVVCLLNNFYPREAKVQWKVDNALQSGNSQESVTEQDSKDSTYSLSSTLTLSKADYEKHKVYACEVTHQGLSSPVTKSFNRGEC
heavy: not shown
notes: also called antibody TB-A
For B2, the EC50 (read off the curve) (usually the midpoint of the concentration-response curve) in test [3] was around 0.6 nM.

B3: Positive control (anti-TNFR2; antibody sequence variable region consists of SEQ ID NO: 25) (VHH, not shown: a dimerising Fc or GST)
VHH: EVQLVESGGGLVQPGGSLRLSCAASGSRLDYYAVAWFRQAPGKEREEVSCITYSGGSTNYAESVKGRFTISRDNSKNTLYLQMNSLRAEDTAVYYCTTEPYGSSCPLSGYDTWGQGTLVTVSS
notes: also called positive control 2
Turning to B3, the “IC50 (read off the curve)” value in test [4] and in test [5] was around 2 nM throughout.
